Laboratory results taken from publication PMC7528652, “Xrn1p acts at multiple steps in the budding-yeast RNAi pathway to enhance the efficiency of silencing”.

Molecular target: T1, Ago1p (WT) (Naumovozyma castellii, UniProt D5SHI8 2-1299)
T1 sequence: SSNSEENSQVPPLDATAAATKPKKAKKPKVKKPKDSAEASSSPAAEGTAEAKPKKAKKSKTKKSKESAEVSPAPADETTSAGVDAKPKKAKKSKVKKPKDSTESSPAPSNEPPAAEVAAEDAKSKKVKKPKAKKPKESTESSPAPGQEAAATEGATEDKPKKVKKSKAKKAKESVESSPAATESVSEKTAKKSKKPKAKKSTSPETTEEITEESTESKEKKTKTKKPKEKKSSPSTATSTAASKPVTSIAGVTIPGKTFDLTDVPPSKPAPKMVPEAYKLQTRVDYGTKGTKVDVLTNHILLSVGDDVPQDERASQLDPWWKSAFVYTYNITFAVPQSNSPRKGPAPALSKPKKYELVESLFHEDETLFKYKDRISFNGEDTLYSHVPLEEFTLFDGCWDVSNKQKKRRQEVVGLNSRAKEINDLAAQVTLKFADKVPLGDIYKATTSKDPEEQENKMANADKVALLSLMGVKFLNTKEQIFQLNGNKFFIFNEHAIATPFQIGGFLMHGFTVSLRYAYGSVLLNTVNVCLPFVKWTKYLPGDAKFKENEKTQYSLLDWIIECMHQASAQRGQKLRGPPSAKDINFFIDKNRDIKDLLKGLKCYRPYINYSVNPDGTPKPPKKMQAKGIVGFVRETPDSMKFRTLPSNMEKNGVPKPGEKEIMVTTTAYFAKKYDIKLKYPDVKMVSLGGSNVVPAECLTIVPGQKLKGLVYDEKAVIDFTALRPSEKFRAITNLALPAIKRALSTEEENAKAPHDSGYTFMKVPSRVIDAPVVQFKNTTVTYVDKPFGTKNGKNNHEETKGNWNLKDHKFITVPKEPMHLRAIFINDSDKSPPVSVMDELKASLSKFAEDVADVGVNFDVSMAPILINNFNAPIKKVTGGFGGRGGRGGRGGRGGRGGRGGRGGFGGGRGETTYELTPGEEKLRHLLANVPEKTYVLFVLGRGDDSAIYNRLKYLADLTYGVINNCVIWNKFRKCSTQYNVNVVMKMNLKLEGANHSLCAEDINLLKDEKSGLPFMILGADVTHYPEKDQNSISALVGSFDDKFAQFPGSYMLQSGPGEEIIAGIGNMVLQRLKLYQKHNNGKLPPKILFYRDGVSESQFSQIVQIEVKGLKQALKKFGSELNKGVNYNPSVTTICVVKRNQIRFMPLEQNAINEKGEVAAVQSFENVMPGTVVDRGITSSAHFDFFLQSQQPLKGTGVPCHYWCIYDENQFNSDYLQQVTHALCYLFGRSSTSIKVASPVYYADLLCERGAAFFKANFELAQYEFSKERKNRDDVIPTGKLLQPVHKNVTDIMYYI
Experiment: filter binding (nitrocellulose-nylon); preincubated with 200 nM WT Xrn1p: bound siRNA enhanced; 50 mM Hepes pH 7.6, 300 mM potassium glutamate, 10 mM NaCl, 5 mM Mg acetate, 1 mM EGTA, 1 mM EDTA, 10% glycerol, 0.01% NP-40, 5 mM DTT, 30 C
Details: protein: recombinant; tags: N-terminal 3xFLAG-SUMO-TEV in expression construct; tag state after purification not in material; label: 32P 5' end of guide strand (S68); 21 bp, 2 nt 3' overhangs on both strands

B1: miR-20a siRNA duplex (dsRNA)
RNA 1: UAAAGUGCUUAUAGUGCAGGUAG
RNA 2: ACCUGCACUAUAAGCACUUUAAG
**Q.** Does B1 bind?
**A.** binds
